This assay addresses full-length H7 HA trimer (influenza A virus (H7)). The assay is described as follows: BLI.

For orientation: Kd means the equilibrium constant for the complex coming apart. A high value points to a looser complex. A word on the koff: it is the rate constant with which the complex falls apart. Usually kon stands for the rate constant with which the complex forms. Read a high kon as fast association.

In the case of CT149 Fab, the dissociation constant Kd was determined as 3.7 nM, the koff is 0.0031 s⁻¹ and the kon came out at 360000 M⁻¹ s⁻¹.

(Values after article PMC6391921.)
